The series deals with TetR(B) (UniProt P04483 1-207). The experiment in a line: cytometric bead binding assay.
Chain of TetR(B) (P04483 whole entry): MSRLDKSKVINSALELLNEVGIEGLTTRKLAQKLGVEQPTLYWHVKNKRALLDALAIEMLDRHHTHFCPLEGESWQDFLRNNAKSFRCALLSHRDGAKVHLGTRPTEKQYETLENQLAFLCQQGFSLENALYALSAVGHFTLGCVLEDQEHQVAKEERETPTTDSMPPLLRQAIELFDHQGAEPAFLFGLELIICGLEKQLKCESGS

B1: 5-1.2m2 (structured_RNA)
RNA: GGAUCCAGGCAGUGUAAGGUCGAUACGGACGGAAUGUGAUGGCCUGGAUCCAAA
In the case of B1, the binding result is recorded as “no binding”.

For the origin of these results see PMC3351163.
